How the values were obtained:
Test in all cases: direct binding assay (cell-free, plate-based luminescence); GFP-TRKB from 120 ug HEK293T lysate captured on anti-GFP coated 96-well plate; biotinylated BDNF 0.1-100 pM added for 1 h at RT in PBS; HRP-streptavidin and ECL; blank wells subtracted
GFP-TRKB.Tyr433Phe (rat) = GFP-TRKB.Tyr433Phe (rat) (UniProt Q63604)
GFP-TRKB.wt (rat) = GFP-TRKB.wt (rat) (UniProt Q63604)
GFP-TRKB/TRKA.TM (rat) = GFP-TRKB/TRKA.TM (rat) (UniProt Q63604)

In the case of “biotinylated BDNF (brain-derived neurotrophic factor) (ligand)”, the Kd (GFP-TRKB.Tyr433Phe (rat)) is reported as 0.438 pM, the Kd (GFP-TRKB.wt (rat)) is reported as 0.39 pM and the Kd (GFP-TRKB/TRKA.TM (rat)) is reported as 0.387 pM.

Source: paper PMC10725331
